{"source": "patent US20150080295A1", "about": "(ZEALAND PHARMA A S, published 2015)", "key": {"[1]": {"target": "human glucagon-like peptide 1 receptor (human, UniProt P43220 24-463)", "sequence (P43220 24-463)": "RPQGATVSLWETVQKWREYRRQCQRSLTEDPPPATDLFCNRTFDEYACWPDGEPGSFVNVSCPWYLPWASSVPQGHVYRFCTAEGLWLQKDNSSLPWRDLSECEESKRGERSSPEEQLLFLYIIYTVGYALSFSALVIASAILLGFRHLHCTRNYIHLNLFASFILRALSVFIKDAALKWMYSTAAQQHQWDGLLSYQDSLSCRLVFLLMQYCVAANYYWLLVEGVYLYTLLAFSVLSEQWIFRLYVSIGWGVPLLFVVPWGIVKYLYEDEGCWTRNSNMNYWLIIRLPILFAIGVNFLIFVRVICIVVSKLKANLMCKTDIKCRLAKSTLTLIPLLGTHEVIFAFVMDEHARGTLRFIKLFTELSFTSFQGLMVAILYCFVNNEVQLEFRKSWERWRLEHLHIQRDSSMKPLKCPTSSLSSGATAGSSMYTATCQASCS", "test": "cell-based or functional assay"}, "human glucagon receptor": {"target": "human glucagon receptor (human, UniProt P47871 26-477)", "test": "cell-based or functional assay"}}, "note": "Numbered stars: 1 amine (or outer) side, 2 acyl side, 3 side chain; on linkers, the order of the positions; unused ones are H or OH. Square brackets hold non-standard residues; d marks the D form. Side chains are listed from the residue outwards. Ends that are not written are not given here. * marks the point of attachment. γGlu = O=C(O)[C@H](CCC(=O)[*:2])N[*:1]; Palmitoyl = CCCCCCCCCCCCCCCC(=O)*; Aib = CC(C)(N)C(=O)O", "data": [{"binder": "H-HSQGTFTSDYSKYLDSRAAHDFVEWLLRA-NH2", "note": "[L006-0169]", "values": [{"measurement": "GLP-1R EC50 (nM), cAMP formation in HEK293 cells expressing human GLP-1-R", "setting": "[1]", "value": 0.99, "unit": "nM"}, {"measurement": "GLUR EC50 (nM), cAMP formation in HEK293 cells expressing human Glucagon-R", "setting": "human glucagon receptor", "value": 152, "unit": "nM"}]}, {"binder": "H-HSQGTFTSDYSKYLDSKAAHDFVEWLLRA-OH", "note": "[L006-0296]", "values": [{"measurement": "GLP-1R EC50 (nM), cAMP formation in HEK293 cells expressing human GLP-1-R", "setting": "[1]", "value": 0.14, "unit": "nM"}, {"measurement": "GLUR EC50 (nM), cAMP formation in HEK293 cells expressing human Glucagon-R", "setting": "human glucagon receptor", "value": 0.12, "unit": "nM"}]}, {"binder": "H-HSQGTFTSDYSKYLDSKAAHDFVEWLMNT-NH2", "note": "[L006-0176]", "values": [{"measurement": "GLP-1R EC50 (nM), cAMP formation in HEK293 cells expressing human GLP-1-R", "setting": "[1]", "value": 0.44, "unit": "nM"}, {"measurement": "GLUR EC50 (nM), cAMP formation in HEK293 cells expressing human Glucagon-R", "setting": "human glucagon receptor", "value": 0.57, "unit": "nM"}]}, {"binder": "H-HSQGTFTSDYSKYLDSKAAQDFVQWLMNT-NH2", "note": "[ZP2667]", "values": [{"measurement": "GLP-1R EC50 (nM), cAMP formation in HEK293 cells expressing human GLP-1-R", "setting": "[1]", "value": 0.02, "unit": "nM"}, {"measurement": "GLUR EC50 (nM), cAMP formation in HEK293 cells expressing human Glucagon-R", "setting": "human glucagon receptor", "value": 0.07, "unit": "nM"}]}, {"binder": "H-HSQGTFTSDYSKYLDSKAAKDFVEWLLRA-NH2", "note": "[L006-0208]", "values": [{"measurement": "GLP-1R EC50 (nM), cAMP formation in HEK293 cells expressing human GLP-1-R", "setting": "[1]", "value": 0.57, "unit": "nM"}, {"measurement": "GLUR EC50 (nM), cAMP formation in HEK293 cells expressing human Glucagon-R", "setting": "human glucagon receptor", "value": 0.55, "unit": "nM"}]}, {"binder": "H-HSQGTFTSDYSKYLDSKAAHDFVQWLLRA-NH2", "note": "[L006-0172]", "values": [{"measurement": "GLP-1R EC50 (nM), cAMP formation in HEK293 cells expressing human GLP-1-R", "setting": "[1]", "value": 0.21, "unit": "nM"}, {"measurement": "GLUR EC50 (nM), cAMP formation in HEK293 cells expressing human Glucagon-R", "setting": "human glucagon receptor", "value": 0.37, "unit": "nM"}]}, {"binder": "H[dS]QGTFTSDYSKYLDSKAAHDFVEWLLRA-NH2", "note": "[ZP2866]", "values": [{"measurement": "GLP-1R EC50 (nM), cAMP formation in HEK293 cells expressing human GLP-1-R", "setting": "[1]", "value": 0.09, "unit": "nM"}, {"measurement": "GLUR EC50 (nM), cAMP formation in HEK293 cells expressing human Glucagon-R", "setting": "human glucagon receptor", "value": 0.11, "unit": "nM"}]}, {"binder": "H-HSQGTFTSDYSKYLDSKAARDFVRWLKLA-NH2", "note": "[ZP2668]", "values": [{"measurement": "GLP-1R EC50 (nM), cAMP formation in HEK293 cells expressing human GLP-1-R", "setting": "[1]", "value": 0.08, "unit": "nM"}, {"measurement": "GLUR EC50 (nM), cAMP formation in HEK293 cells expressing human Glucagon-R", "setting": "human glucagon receptor", "value": 0.8, "unit": "nM"}]}, {"binder": "H-HSQGTFTSDYSKYLDSKAAHDFVKWLLRA-NH2", "note": "[L006-0212]", "values": [{"measurement": "GLP-1R EC50 (nM), cAMP formation in HEK293 cells expressing human GLP-1-R", "setting": "[1]", "value": 0.76, "unit": "nM"}, {"measurement": "GLUR EC50 (nM), cAMP formation in HEK293 cells expressing human Glucagon-R", "setting": "human glucagon receptor", "value": 1.23, "unit": "nM"}]}, {"binder": "H-HSQGTFTSDYSKYLDSKAAHDFVEWLLRA-NH2", "note": "[ZP2669]", "values": [{"measurement": "GLP-1R EC50 (nM), cAMP formation in HEK293 cells expressing human GLP-1-R", "setting": "[1]", "value": 0.05, "unit": "nM"}, {"measurement": "GLUR EC50 (nM), cAMP formation in HEK293 cells expressing human Glucagon-R", "setting": "human glucagon receptor", "value": 0.05, "unit": "nM"}]}, {"binder": "HSQGTFTSDYSKYLDSK([γGlu-Palmitoyl])AAHDFVEWLLRA-NH2", "note": "[ZP2872]", "values": [{"measurement": "GLP-1R EC50 (nM), cAMP formation in HEK293 cells expressing human GLP-1-R", "setting": "[1]", "value": 0.103, "unit": "nM"}, {"measurement": "GLUR EC50 (nM), cAMP formation in HEK293 cells expressing human Glucagon-R", "setting": "human glucagon receptor", "value": 0.085, "unit": "nM"}]}, {"binder": "H-HSQGTFTSDYSKYLDKKAAHDFVEWLLRA-NH2", "note": "[L006-0239]", "values": [{"measurement": "GLP-1R EC50 (nM), cAMP formation in HEK293 cells expressing human GLP-1-R", "setting": "[1]", "value": 0.98, "unit": "nM"}, {"measurement": "GLUR EC50 (nM), cAMP formation in HEK293 cells expressing human Glucagon-R", "setting": "human glucagon receptor", "value": 1.05, "unit": "nM"}]}, {"binder": "H-HSQGTFTSDYSKYLDSLAAQDFVQWLLNT-NH2", "note": "[ZP2753]", "values": [{"measurement": "GLP-1R EC50 (nM), cAMP formation in HEK293 cells expressing human GLP-1-R", "setting": "[1]", "value": 0.04, "unit": "nM"}, {"measurement": "GLUR EC50 (nM), cAMP formation in HEK293 cells expressing human Glucagon-R", "setting": "human glucagon receptor", "value": 0.08, "unit": "nM"}]}, {"binder": "H-HSQGTFTSDYSKYLDSKRAHDFVEWLLRA-NH2", "note": "[L006-0170]", "values": [{"measurement": "GLP-1R EC50 (nM), cAMP formation in HEK293 cells expressing human GLP-1-R", "setting": "[1]", "value": 0.5, "unit": "nM"}, {"measurement": "GLUR EC50 (nM), cAMP formation in HEK293 cells expressing human Glucagon-R", "setting": "human glucagon receptor", "value": 0.79, "unit": "nM"}]}, {"binder": "H-HSQGTFTSDYSKYLDSKAAQDFVEWLLRA-NH2", "note": "[L006-0171]", "values": [{"measurement": "GLP-1R EC50 (nM), cAMP formation in HEK293 cells expressing human GLP-1-R", "setting": "[1]", "value": 0.37, "unit": "nM"}, {"measurement": "GLUR EC50 (nM), cAMP formation in HEK293 cells expressing human Glucagon-R", "setting": "human glucagon receptor", "value": 0.78, "unit": "nM"}]}, {"binder": "H[Aib]QGTFTSDYSKYLDSKAAHDFVEWLLRA-NH2", "note": "[ZP2867]", "values": [{"measurement": "GLP-1R EC50 (nM), cAMP formation in HEK293 cells expressing human GLP-1-R", "setting": "[1]", "value": 0.08, "unit": "nM"}, {"measurement": "GLUR EC50 (nM), cAMP formation in HEK293 cells expressing human Glucagon-R", "setting": "human glucagon receptor", "value": 0.06, "unit": "nM"}]}]}
